Laboratory results from publication PMC7641752, “A hand-off of DNA between archaeal polymerases allows high-fidelity replication to resume at a discrete intermediate three bases past 8-oxoguanine”.

T1: PCNA123 (Saccharolobus solfataricus) (UniProt P57766)
T1 sequence 1: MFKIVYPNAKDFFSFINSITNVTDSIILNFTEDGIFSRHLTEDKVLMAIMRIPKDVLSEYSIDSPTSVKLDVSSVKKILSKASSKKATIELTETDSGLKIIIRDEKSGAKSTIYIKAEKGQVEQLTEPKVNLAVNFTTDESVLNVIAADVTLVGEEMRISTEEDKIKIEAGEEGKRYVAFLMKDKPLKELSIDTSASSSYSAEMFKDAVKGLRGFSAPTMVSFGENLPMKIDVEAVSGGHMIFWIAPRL
T1 sequence 2: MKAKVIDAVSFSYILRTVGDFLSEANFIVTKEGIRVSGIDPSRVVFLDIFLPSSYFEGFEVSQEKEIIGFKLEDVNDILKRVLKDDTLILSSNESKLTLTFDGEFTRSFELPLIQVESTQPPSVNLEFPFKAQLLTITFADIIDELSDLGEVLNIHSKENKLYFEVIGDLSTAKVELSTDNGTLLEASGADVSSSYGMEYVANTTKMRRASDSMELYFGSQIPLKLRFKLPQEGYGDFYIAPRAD
T1 sequence 3: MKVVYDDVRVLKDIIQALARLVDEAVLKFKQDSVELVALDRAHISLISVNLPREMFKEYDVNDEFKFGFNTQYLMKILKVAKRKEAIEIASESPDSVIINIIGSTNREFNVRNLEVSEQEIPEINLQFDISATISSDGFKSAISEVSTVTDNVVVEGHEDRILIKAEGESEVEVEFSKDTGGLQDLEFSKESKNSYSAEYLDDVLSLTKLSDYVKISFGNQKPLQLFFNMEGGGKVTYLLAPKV

T2: PolY (Y-family TLS DNA polymerase) (Saccharolobus/Sulfolobus solfataricus …, UniProt Q97W02 1-352)
T2 sequence: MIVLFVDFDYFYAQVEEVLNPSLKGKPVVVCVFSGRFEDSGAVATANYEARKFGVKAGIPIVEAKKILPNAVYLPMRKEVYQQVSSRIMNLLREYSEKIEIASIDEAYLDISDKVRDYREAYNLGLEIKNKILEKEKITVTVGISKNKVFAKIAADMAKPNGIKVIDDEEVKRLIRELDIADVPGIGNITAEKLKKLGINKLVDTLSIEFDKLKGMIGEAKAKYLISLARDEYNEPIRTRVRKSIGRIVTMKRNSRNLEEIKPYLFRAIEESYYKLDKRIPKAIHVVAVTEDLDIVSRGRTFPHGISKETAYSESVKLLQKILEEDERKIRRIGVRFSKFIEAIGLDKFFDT


Assays:
[1] = molecular target: T1, PCNA123 (Saccharolobus solfataricus)
[2] = molecular target: T1, PCNA123 (Saccharolobus solfataricus); remark: listed apart in the source
[3] = molecular target: T2, PolY (Y-family TLS DNA polymerase); assay: fluorescence anisotropy; Fluorescence anisotropy, 4 nM DNA, room temperature, 90 s incubation, Hill fit, mean of three titrations; binding buffer not stated in the material (as in ref 38); conditions: protein: recombinant, label: 5'-FAM on primer (strand 1), primer-template
[4] = 5' overhang 30 nt on template (strand 2)
[5] = 5' overhang 26 nt on template (strand 2)

Binder	Kd [3, 4] [nM]	Kd [3, 5] [nM]	further results
PolB1 (enzyme) MTKQLTLFDIPSSKPAKSEQNTQQSQQSAPVEEKKVVRREWLEEAQENKIYFLLQVDYDGKKGKAVCKLFDKETQKIYALYDNTGHKPYFLVDLEPDKVGKIPKIVRDPSFDHIETVSKIDPYTWNKFKLTKIVVRDPLAVRRLRNDVPKAYEAHIKYFNNYMYDIGLIPGMPYVVKNGKLESVYLSLDEKDVEEIKKAFADSDEMTRQMAVDWLPIFETEIPKIKRVAIDIEVYTPVKGRIPDSQKAEFPIISIALAGSDGLKKVLVLNRNDVNEGSVKLDGISVERFNTEYELLGRFFDILLEYPIVLTFNGDDFDLPYIYFRALKLGYFPEEIPIDVAGKDEAKYLAGLHIDLYKFFFNKAVRNYAFEGKYNEYNLDAVAKALLGTSKVKVDTLISFLDVEKLIEYNFRDAEITLQLTTFNNDLTMKLIVLFSRISRLGIEELTRTEISTWVKNLYYWEHRKRNWLIPLKEEILAKSSNIRTSALIKGKGYKGAVVIDPPAGIFFNITVLDFASLYPSIIRTWNLSYETVDIQQCKKPYEVKDETGEVLHIVCMDRPGITAVITGLLRDFRVKIYKKKAKNPNNSEEQKLLYDVVQRAMKVFINATYGVFGAETFPLYAPAVAESVTALGRYVITSTVKKAREEGLTVLYGDTDSLFLLNPPKNSLENIIKWVKTTFNLDLEVDKTYKFVAFSGLKKNYFGVYQDGKVDIKGMLVKKRNTPEFVKKVFNEVKELMISINSPNDVKEIKRKIVDVVKGSYEKLKNKGYNLDELAFKVMLSKPLDAYKKNTPQHVKAALQLRPFGVNVLPRDIIYYVKVRSKDGVKPVQLAKVTEIDAEKYLEALRSTFEQILRAFGVSWDEIAATMSIDSFFSYPSKGNS			observed rate constant (kobs) of extension from primer p26 (+3), Scheme vi: PolB1 added at initiation to DNA pre-loaded with PCNA123 and RFC; rapid quench, 40°C [1]: 2.1 s⁻¹
PolY (enzyme) MIVLFVDFDYFYAQVEEVLNPSLKGKPVVVCVFSGRFEDSGAVATANYEARKFGVKAGIPIVEAKKILPNAVYLPMRKEVYQQVSSRIMNLLREYSEKIEIASIDEAYLDISDKVRDYREAYNLGLEIKNKILEKEKITVTVGISKNKVFAKIAADMAKPNGIKVIDDEEVKRLIRELDIADVPGIGNITAEKLKKLGINKLVDTLSIEFDKLKGMIGEAKAKYLISLARDEYNEPIRTRVRKSIGRIVTMKRNSRNLEEIKPYLFRAIEESYYKLDKRIPKAIHVVAVTEDLDIVSRGRTFPHGISKETAYSESVKLLQKILEEDERKIRRIGVRFSKFIEAIGLDKFFDT			observed rate constant (kobs) of 8-oxoG lesion bypass from primer p22 (-1), Scheme ii: PolY added at initiation to DNA pre-loaded with PCNA123 and RFC; rapid quench, 40°C [2]: 0.22 s⁻¹
p22-FAM/t52Und (-1, undamaged) (dsDNA) DNA 1: GCGAGGCGAGCGCGAGCGATAC DNA 2: CGTCCAACATGAAGCTTGCACTCGATCGCGGTATCGCTCGCGCTCGCCTCGC	16.1 ± 0.4		
p26-FAM/t528 (+3, 8-oxoG) (dsDNA, 8-oxoguanine at position 30 from 5' of strand 2 (23 from 3' end), written as G) DNA 1: GCGAGGCGAGCGCGAGCGATACCGCG DNA 2: CGTCCAACATGAAGCTTGCACTCGATCGCGGTATCGCTCGCGCTCGCCTCGC		13 ± 0.4	
p22-FAM/t528 (-1, 8-oxoG) (dsDNA, 8-oxoguanine at position 30 from 5' of strand 2 (23 from 3' end), written as G) DNA 1: GCGAGGCGAGCGCGAGCGATAC DNA 2: CGTCCAACATGAAGCTTGCACTCGATCGCGGTATCGCTCGCGCTCGCCTCGC	25.9 ± 8.2		
p26-FAM/t52Und (+3, undamaged) (dsDNA) DNA 1: GCGAGGCGAGCGCGAGCGATACCGCG DNA 2: CGTCCAACATGAAGCTTGCACTCGATCGCGGTATCGCTCGCGCTCGCCTCGC		31.2 ± 3.5	
